Columns and labels:
rat PTHR1 (rPTHR1) = assay: Flow cytometry binding of VHH-Alexafluor647 to HEK293 expressing rat PTHR1; details: 100 nM VHH-Alexafluor647, on ice
Protocol: (§1) Fig. 3 Binding of VHHs to HEK293 cell lines stably transfected with PTHRs. a Analysis of VHH binding to PTHR1, PTHR2 and variants by flow cytometry. HEK293 cell lines in suspension were incubated on ice with 100 nM VHH sortagged with Alexafluor647, pelleted by centrifugation, washed and analyzed. Data for PTHR1-GFP is found in Supplementary Fig. 1. b Analysis of VHH binding with microscopy. Adherent HEK293 cells expressing human PTHR1 were stained on ice with 50 nM VHHPTHR-tetramethylrhodamine (TMR, red) and 30 nM PTH(1-20)-fluorescein (FAM, green) for 30 min. Following staining, cells were washed and treated with fixative in preparation for image acquisition either immediately after staining (0 min) or following a 15-min incubation in medium at room temperature (15 min). Nuclei (blue) were stained with DAPI. The scale bar (20 μm) is at the bottom left image and is applicable to each image in this panel. This experiment was repeated twice with similar results.
(§2) Suspensions of cells in PBS were stained for 1 h on ice in the presence of indicated concentrations of VHH probes functionalized with Alexafluor647. Cells were pelleted by centrifugation and washed with PBS prior to analysis by flow cytometry (BD Accuri C6). […] Data were analyzed using FlowJo version 7.6. […]

PTHR1_6E = assay: Flow cytometry binding of VHH-Alexafluor647 to HEK293 expressing PTHR1_6E; set-up: species or system human; details: flow cytometry MFI, VHH-Alexafluor647, 1 h on ice
Protocol: (§3) Suspensions of cells in PBS were stained for 1 h on ice in the presence of indicated concentrations of VHH probes functionalized with Alexafluor647. Cells were pelleted by centrifugation and washed with PBS prior to analysis by flow cytometry (BD Accuri C6). To select intact cells gating was performed on forward scatter/side scatter profiles for analysis (see Supplementary Fig. 4 for an example of the gating strategy). Data were analyzed using FlowJo version 7.6. The median fluorescent intensity (MFI) of stained cells was used to generate VHH binding dose response curves (Supplementary Fig. 4).
Supplementary Figure 4. Assessment of VHH binding to PTHR1 variants by flow cytometry. Cells dislodged from tissue culture plates using trypsinization were incubated with varied concentrations of VHHs sortagged with AlexaFluor647 on ice for 1 h. Cells were centrifuged, washed, and analyzed by flow cytometry via gating of intact cells (live gate) based on forward scatter/side scatter profiles (panel a). (b) Data points represent median fluorescent intensity values ( individual data points shown, n = 2 independent replicates per condition). Connecting curves are the result of fitting a sigmoidal dose - response model to the data points. Precise estimates for VHH PTHR binding cannot be provided since the […]
(§4) (1 picture or pasted object on this page, not shown here)

PTHR1 = assay: Flow cytometry binding to HEK293 expressing human PTHR1; details: flow cytometry MFI, VHH-Alexafluor647, 1 h on ice; no plateau, estimate
Text: Cells were pelleted by centrifugation and washed with PBS prior to analysis by flow cytometry (BD Accuri C6).
Supplementary Figure 4. […] Cells
as §4

PTHR2 = assay: Flow cytometry binding of VHH-Alexafluor647 to HEK293 expressing PTHR2; set-up: species or system human; details: 100 nM VHH-Alexafluor647, on ice
Protocol: as §1, §2

PTHR1GFP = target: T1, PTHR1GFP (Homo sapiens, UniProt Q03431); assay: Flow cytometry binding of VHH-Alexafluor647 to HEK293 expressing PTHR1GFP; details: flow cytometry MFI, VHH-Alexafluor647, 1 h on ice; no plateau, estimate
T1 sequence (Q03431 27-593): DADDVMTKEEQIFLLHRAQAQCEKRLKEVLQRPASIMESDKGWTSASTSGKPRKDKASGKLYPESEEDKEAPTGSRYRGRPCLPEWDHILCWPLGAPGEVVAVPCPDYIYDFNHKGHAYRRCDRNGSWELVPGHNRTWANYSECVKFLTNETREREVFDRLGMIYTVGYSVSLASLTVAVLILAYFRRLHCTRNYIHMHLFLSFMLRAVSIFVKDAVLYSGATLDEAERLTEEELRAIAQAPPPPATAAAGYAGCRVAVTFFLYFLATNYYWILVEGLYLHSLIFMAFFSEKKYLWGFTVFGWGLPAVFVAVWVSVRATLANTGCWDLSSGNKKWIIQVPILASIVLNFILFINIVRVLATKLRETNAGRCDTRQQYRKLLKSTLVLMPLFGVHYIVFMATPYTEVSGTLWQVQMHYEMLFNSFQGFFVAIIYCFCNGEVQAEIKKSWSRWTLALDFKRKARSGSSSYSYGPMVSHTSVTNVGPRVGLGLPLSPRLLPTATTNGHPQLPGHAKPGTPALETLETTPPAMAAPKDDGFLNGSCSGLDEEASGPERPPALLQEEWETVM
Protocol: as §3
Supplementary Figure 1. […] HEK293 cell lines in suspension were incubated on ice with 100 nM VHH sortagged with Alexafluor647, pelleted by centrifugation, washed and analyzed. […]
PTHR1GFP. This weak staining is likely related to the inability of VHHGFP to tightly bind the pH-sensitive GFP variant known as pHluorin2 engrafted into the receptor(ref. 19, main text). c) HEK293 cells stably expressing PTHR1-GFP were treated with varied doses of the indicated peptides or conjugates and activation was assessed by measuring luminescence from a cAMP-activated luciferase variant. […]
Supplementary Figure 4. […] Cells were centrifuged, washed, and analyzed by flow cytometry via gating of intact cells (live gate) based on forward scatter/side scatter profiles (panel a). […]

B1: VHHPTHR: nanobody that recognizes PTHR1 itself, sequence from the literature (named 22A3) (antibody, V domains shown)
VH: EVQLVESGGGLVQAGGSLRLSCAASGNIFANNIMGWYRQPPGKEREFVAHVSHDGDSMYAVSVKGRFAISRKDATNLYLQMNSLKPEDTAIYFCRLLNIPTQGRMEGFWGQGTQVTVSS
For B1, the “staining of cells” value (rat PTHR1 (rPTHR1)) was “bound”, the half-maximal staining concentration (PTHR1_6E) was 100 to 200 nM and the half-maximal staining concentration (PTHR1) was 100 to 200 nM. For the same molecule, the “staining of cells” value (PTHR2) was “binds to PTHR1 but not PTHR2” and the half-maximal staining concentration (PTHR1GFP) was 100 to 200 nM.

— article PMC7190724, “Improved GPCR ligands from nanobody tethering” (Nature Communications, 2020)
